Measurements reported in patent US20090124570A1, “Methods and Compositions for Facilitating Tissue Repair and Diagnosing, Preventing, and Treating Fibrosis” (University of Maryland, Baltimore, priority 2007, published 2009).
Entries after “also recorded” stand apart in the source; their conditions may differ.

B1: rhBIGH3: recombinant human BIGH3 (TGFBI, keratoepithelin), a 68 kDa extracellular matrix protein (protein, UniProt Q15582 24-683, looked up)
Transforming growth …: GPAKSPYQLVLQHSRLRGRQHGPNVCAVQKVIGTNRKYFTNCKQWYQRKICGKSTVISYECCPGYEKVPGEKGCPAALPLSNLYETLGVVGSTTTQLYTDRTEKLRPEMEGPGSFTIFAPSNEAWASLPAEVLDSLVSNVNIELLNALRYHMVGRRVLTDELKHGMTLTSMYQNSNIQIHHYPNGIVTVNCARLLKADHHATNGVVHLIDKVISTITNNIQQIIEIEDTFETLRAAVAASGLNTMLEGNGQYTLLAPTNEAFEKIPSETLNRILGDPEALRDLLNNHILKSAMCAEAIVAGLSVETLEGTTLEVGCSGDMLTINGKAIISNKDILATNGVIHYIDELLIPDSAKTLFELAAESDVSTAIDLFRQAGLGNHLSGSERLTLLAPLNSVFKDGTPPIDAHTRNLLRNHIIKDQLASKYLYHGQTLETLGGKKLRVFVYRNSLCIENSCIAAHDKRGRYGTLFTMDRVLTPPMGTVMDVLKGDNRFSMLVAAIQSAGLTETLNREGVYTVFAPTNEAFRALPPRERSRLLGDAKELANILKYHIGDEILVSGGIGALVRLKSLQGDKLEVSLKNNVVSVNKEPVAEPDIMATNGVVHVITNVLQPPANRPQERGDELADSALEIFKQASAFSRASQRSVRLAPVYQKLLERMKH

Columns and labels:
COL1A2 promoter = assay: Collagen promoter-CAT reporter construct in transfected fibroblasts; format: cell-based, human
Description: Production of collagen was measured in cell cultures utilizing the metabolic labeling of collagen with ^14C-proline as described by Luzina. I. G. Luzina et al. (2006) Am J Respir Cell Mol Biol. 35:298-305; I. G. Luzina et al. (2006) Arthritis Rheum. 54: 2643-2655. Briefly, fibroblast monolayers were pulsed with L-[U-^14C]-proline (Amersham Biosciences, Piscataway, N.J.) at 1 μCi/ml for the final 12 hours of incubation. Purified bacterial collagenase type III was purchased from Sigma Aldrich (St. Louis, Mo.). Fibroblasts were then ruptured by repeated freeze-thawing, and part of each sample digested with collagenase type III. The samples were pelleted with 20% TCA containing 0.1% L-proline, and then the pellets were resuspended and washed twice with 5% TCA and 95% ice-cold ethanol. The samples were assayed in a liquid scintillation counter in order to determine the amount of collagenase-digestible and non-digestible ^14C-labeled protein. Alternatively, collagen protein levels in cell culture supernatants were measured in Western blotting assays as described above. The activity of the COL1A2 promoter was measured in primary fibroblasts transfected with collagen promoter-chloramphenicol acetyltransferase (CAT) reporter constructs as described by Luzina. I. G. Luzina et al. (2006) Am J Respir Cell Mol Biol. 35:298-305. […]

[1] = test system: primary pulmonary fibroblasts; conditions: as reported by Luzina et al. 2006; cited from earlier work
[2] = test system: primary pulmonary fibroblasts; assay: Collagen production in primary fibroblast cultures (14C-proline incorporation, Western blotting); format: cell-based, human; conditions: primary fibroblasts stimulated with rhBIGH3, various doses and times, 14C-proline incorporation and Western blotting
Description: (§1) Preparation of cell lysates, immunoprecipitation of BIGH3 protein, normalization of protein concentration in the samples with BioRad assays, electrophoretic separation and Western blotting were performed as previously described by Atamas. S. P. Atamas et al. (2003) Am J Respir Cell Mol Biol. 29:743-749. Goat antibodies for BIGH3 were purchased from R&D Systems (Minneapolis, Minn.). Goat antibodies for MMP14 were purchased from Santa-Cruz Biotechnology (Santa Cruz, Calif.). Western blotting assays for collagen were performed using rabbit affinity purified anti-collagen type I antibody (Rockland, Gilbertsville, Pa.).
Production of collagen was measured in cell cultures utilizing the metabolic labeling of collagen with ^14C-proline as described by Luzina. I. G. Luzina et al. (2006) Am J Respir Cell Mol Biol. 35:298-305; I. G. Luzina et al. (2006) Arthritis Rheum. 54: 2643-2655. […] Alternatively, collagen protein levels in cell culture supernatants were measured in Western blotting assays as described above. The activity of the COL1A2 promoter was measured in primary fibroblasts transfected with collagen promoter-chloramphenicol acetyltransferase (CAT) reporter constructs as described by Luzina. […]
To test this possibility, fibroblast cultures were incubated for various times with various doses of recombinant human BIGH3 (rhBIGH3), and the levels of collagen accumulation were measured. […]

COL1A2 mRNA = assay: Real-time PCR of COL1A2 mRNA in fibroblasts; format: cell-based, human; conditions: BIGH3-treated vs control fibroblast cultures
Description: Total RNA purification, reverse transcription, and real-time PCR were performed using LightCycler (Roche, Indianapolis, Ind.), as previously described by Atamas. S. P. Atamas et al. (2003) Am J Respir Cell Mol Biol. 29:743-749. Quantification of internal control 18S ribosomal RNA was performed as reported previously by Luzina. I. G. Luzina et al. (2006) J Cell Physiol. 206:221-228. The PCR reaction mixture included the recommended components of the FastStart DNA Master Hybridization Probes Hot Start Reaction Mix (Roche, Indianapolis, Ind.). The fold difference in gene expression relative to 18S ribosomal RNA between treated and untreated cultures was calculated using the 2^−ΔΔCt method. I. G. Luzina et al. (2006) Arthritis Rheum. 54: 2643-2655. The primers and the hybridization probes for COL1A2 mRNA were designed and prepared by TIB Molbiol (Adelphia, N.J.). The primers for COL1A2 mRNA were: forward, 5′-GATGGTGAAGATGGTCCCACAGG-3′ (SEQ ID NO: 1) and reverse, 5′-GGTCGTCCGGGTTTTCCAGGGT-3′ (SEQ ID NO: 2). The hybridization probes were labeled with fluorescein at the 3′-terminus (3FL) of one probe and with LightCycler Red at the 5′-terminus (5LC) of the other probe. The probes were 3FL 5′-TTCCAAGGACCTGCTGGTGAGCCT-3′ (SEQ ID NO: 3) and 5LC 5′-TGAACCTGGTCAAACTGGTCCTGCAG-3′ (SEQ ID NO: 4). […]

Smad3/4, Sp1, AP1, Ets = assay: Transcription factor array, DNA binding of collagen promoter regulators in fibroblasts; format: cell-based, human; conditions: BIGH3-stimulated vs control fibroblasts, transcription factor arrays
Description: Further experiments were performed to determine whether the increase in collagen levels stimulated by BIGH3 was due to transcriptional upregulation of the collagen gene expression.
(§2) Nuclear extracts from BIGH3-activated and control fibroblast cultures were prepared using nuclear extraction kit from Active Motif (Carlsbad, Calif.) and adjusted for total protein content using Bio-Rad assays. DNA binding by 345 different transcription factors was evaluated using protein/DNA TranSignal™ system (Panomics, Redwood City, Calif.), following the manufacturer's recommendations.

PU.1 = assay: Transcription factor array, DNA binding by PU.1 in fibroblasts; format: cell-based, human; conditions: fibroblasts stimulated with 300 ng/ml rhBIGH3
Description: as §2

p53 = assay: Transcription factor array, DNA binding by p53 in fibroblasts; format: cell-based, human; conditions: fibroblasts stimulated with 300 ng/ml rhBIGH3
Description: as §2

MMP14 = assay: Western blotting for MMP14 protein in primary fibroblasts; format: cell-based, human; conditions: fibroblasts with 300 ng/ml rhBIGH3 for 24 h or 48 h
Description: as §1
Experiments were performed to determine whether BIGH3 upregulates collagen levels in fibroblast cultures by attenuating collagen turnover. To address such a possibility, experiments were performed in which primary fibroblasts were incubated for 6 h with or without 300 ng/ml BIGH3. The expression levels of 84 genes related to connective tissue biology were analyzed using reverse transcriptase—real time PCR approach (RT^2 Profiler™ SuperArray, Frederick, Md.). […] These experiments were repeated on three independent occasions with primary fibroblast cultures from different donors, with consistent results. MMP14 is a critical factor for collagen turnover by fibroblasts. H. Lee et al. (2006) Mol Biol Cell. 17:4812-4826. […]

[3] = test system: matrix metalloproteinase 2 (MMP2); assay: MMP2 levels in primary fibroblast cultures; format: cell-based, human; conditions: primary fibroblast cultures stimulated with recombinant BIGH3

Molecule	response of collagen promoter-CAT reporter construct (COL1A2 promoter)	concentration of active TGF-β required for upregulation of collagen production [1]	collagen protein levels [2]	collagen protein levels ([2]; listed as recombinant BIGH3)	collagen (COL1A2) mRNA steady-state levels (COL1A2 mRNA)	DNA binding activity of Smad3/4, Sp1, AP1, Ets (Smad3/4, Sp1, AP1, Ets)	DNA binding by PU.1 (PU.1)	DNA binding by PU.1 (PU.1; listed as BIGH3)	DNA binding by p53 (p53)	DNA binding by p53 (p53; listed as BIGH3)	MMP14 protein levels (MMP14)	MMP2 levels [3]
TGF-β [reference compound]	responsive	at least 500 pg/ml	–	–	–	–	–	–	–	–	–	–
B1	no differences were observed; also recorded: non-responsive	–	directly regulated collagen production; also recorded: Increases in collagen protein levels	upregulation of collagen protein	no differences in steady-state levels; also recorded: did not stimulate an increase in collagen mRNA	no differences were detected; also recorded: no increase in the activity	significant upregulation	increased	downregulation	decreased	decreased significantly	downregulation
